Here are results for one protein from paper doi:10.1101/2022.08.12.503774 (bioRxiv, 2022).

The series deals with the molecule itself. Description: cryo-EM structure.

B1: MinCys EAAT3 K269C/W441C crosslinked using Hg2+ (EAAT3-X) (natural protein, human, UniProt P43005 1-524, looked up)
chain: MGKPARKGAEWKRFLKNNWVLLSTVAAVVLGITTGVLVREHSNLSTLEKFYFAFPGEILMRMLKLIILPLIISSMITGVAALDSNVSGKIGLRAVVYYFATTLIAVILGIVLVVSIKPGVTQKVGEIARTGSTPEVSTVDAMLDLIRNMFPENLVQAAFQQYKTKREEVKPPSDPEMTMTEESFTAVMTTAISKTKTKEYKIVGMYSDGINVLGLIVFALVFGLVIGKMGEKGQILVDFFNALSDATMKIVQIIMWYMPLGILFLIAGCIIEVEDWEIFRKLGLYMATVLTGLAIHSIVILPLIYFIVVRKNPFRFAMGMAQALLTALMISSSSATLPVTFRCAEENNQVDKRITRFVLPVGATINMDGTALYEAVAAVFIAQLNDLDLGIGQIITISITATSASIGAAGVPQAGLVTMVIVLSAVGLPAEDVTLIIAVDCLLDRFRTMVNVLGDAFGTGIVEKLSKKELEQMDVSSEVNIVNPFALESTILDNEDSDTKKSYVNGGFAVDKSDTISFTQTSQF
modifications: Hg2+ crosslink between C269 and C441
As to B1, the binding result is on record as “binds”.
